# Results from patent publication US5972599, “High affinity nucleic acid ligands of cytokines” (NeXstar Pharmaceuticals, Inc.).
# Where a chain is given by its changes, count along the chain named.
# B1: TNF 11C (ssRNA)
# RNA: GGGAGCUCAGAAUAAACGCUCAAUGAGGCGCGCCACAGGAUGGCCCUCAACCCUUCGACAUGAGGCCCGGAUCCGGC
# B2: TNF 17A (ssRNA)
# RNA: GGGAGCUCAGAAUAAACGCUCAAGGUCGAACUAGCGCUGGAGCGUGCGUUGGUUUCGACAUGAGGCCCGGAUCCGGC
# B3: TNF 16A (ssRNA)
# RNA: GGGAGCUCAGAAUAAACGCUCAAGGUGGAAGGCCUUUGAAGCCCGUACAUCUCCUUCGACAUGAGGCCCGGAUCCGGC
# B4: TNF 19C (ssRNA)
# RNA: GGGAGCUCAGAAUAAACGCUCAAUGUCGAUCGUGUCAAGGUCCGUCCUACUUCUUCGACAUGAGGCCCGGAUCCGGC
# B5: TNF 6C (ssRNA)
# RNA: B4 RNA with A29C, U30A, A37C, A38C, U41C, U45C, U51C, U52C
# B6: IL-10 ligand 2 (ssRNA)
# RNA: GGGAGACAAGAAUAAACGCUCAAAUCUCUACUGAGCCUGGAUUCGCCAGAAGUUUUAUCACAGUUUCGACAGGAGGCUCACAACAGGC
# modifications: 2'-F C and U
# B7: TNF 26A (ssRNA)
# RNA: GGGAGCUCAGAAUAAACGCUCAACCCUCGUGCGUGCGCUUGGAGCGUGGCGCAUUCGACAUGAGGCCCGGAUCCGGC
# B8: IL-4 2'NH2-29 (ssRNA)
# RNA: GGGAGACAAGAAUAAACGCUCAAGAGCUGGUGAGCCACGUAUACGGCCUUAGGGGCUUGGGCGUUCGACAGGAGGCUCACAACAGGC
# modifications: 2'-NH2 all C and U
# B9: TNF 21A (ssRNA)
# RNA: GGGAGCUCAGAAUAAACGCUCAACGUCUAGGAACUGCGUCGCCUCAACAGCGCUUCGACAUGAGGCCCGGAUCCGGC
# B10: TNF 15A (ssRNA)
# RNA: GGGAGCUCAGAAUAAACGCUCAACGUCGAUCGCGUGCUGUAGCCUCAGGCACCUUCGACAUGAGGCCCGGAUCCGGC
# B11: IL-4 2'F/NH2-18 (ssRNA)
# RNA: GGGAGACAAGAAUAAACGCUCAACCGCCUGCGAUAGUUAGACCGUUGAGCUGAGAGCAACACUUUCGACAGGAGGCUCACAACAGGC
# modifications: 2'-F all C, 2'-NH2 all U
# B12: TNF 19A (ssRNA)
# RNA: GGGAGCUCAGAAUAAACGCUCAAGUCGAUGCGCAGUCCGCCUCAGCUGCACUGUUCGACAUGAGGCCCGGAUCCGGC
# B13: IL-10 ligand 15 (ssRNA)
# RNA: GGGAGACAAGAAUAAACGCUCAAUCUCUAUGAGCCUGGAUCGACGAACUCUCUACGGGCUGUGUUCGACAGGAGGCUCACAACAGGC
# modifications: 2'-F C and U
# B14: TNF 5C (ssRNA)
# RNA: GGGAGCUCAGAAUAAACGCUCAACAGUCACGAACGUGCGCCGGAAGAACGCUCUUCGACAUGAGGCCCGGAUCCGGC
# B15: IL-4 2'F/NH2-2 (ssRNA)
# RNA: GGGAGACAAGAAUAAACGCUCAAGACGAACGACCAAGGGACGGGUGGGCAAAUAGGGAUGCCGUUCGACAGGAGGCUCACAACAGGC
# modifications: 2'-F C, 2'-NH2 U
# B16: IL-10 ligand 3 (ssRNA)
# RNA: GGGAGACAAGAAUAAACGCUCAACUGAGAUCUCUAAGAGCCUGGACUCAGCUACGAUUGAGCGUUUAUUCUUGUUCGACAGGAGGCUCACAACAGGC
# modifications: 2'-F C and U
# B17: IL-4 2'F-21 (ssRNA)
# RNA: GGGAGACAAGAAUAAACGCUCAAAGGAGCGCCAUGAAGCAAAGGGAGGAUUGUGGUGGAAGGCUUCGACAGGAGGCUCACAACAGGC
# modifications: 2'-F all C and U
# B18: TNF 17C (ssRNA)
# RNA: GGGAGCUCAGAAUAAACGCUCAAGAUCGAAGUUGUCGUCCGCCUCAGCGACUCUUCGACAUGAGGCCCGGAUCCGGC
# B19: IL-4 2'F-18 (ssRNA)
# RNA: GGGAGACAAGAAUAAACGCUCAAGCUGCCCAAGGAAUUUAACUUGGACCGCGAUCUGGAGUCUUCGACAGGAGGCUCACAACAGGC
# modifications: 2'-F all C and U
# B20: TNF 27A (ssRNA)
# RNA: GGGAGCUCAGAAUAAACGCUCAAGUCGCUCGAUCGUUUCAUGUCCGUUCGACCUUCGACAUGAGGCCCGGAUCCGGC
# B21: TNF 8C 2'F (ssRNA)
# RNA: GGGAGCUCAGAAUAAACGCUCAAGUCCACACUUUGCCGAGCGUCCUAGUGUUCGACAUGAGGCCCGGAUCCGGC
# modifications: 2'-F all C and U
# B22: IL-4 2'F-12 (ssRNA)
# RNA: GGGAGACAAGAAUAAACGCUCAAGUCUGACUAUUGGGGCGCCACAAUAUCAACGGCUGUACUUCGACAGGAGGCUCACAACAGGC
# modifications: 2'-F all C and U
# B23: TNF 15C (ssRNA)
# RNA: GGGAGCUCAGAAUAAACGCUCAACUAGUUCAACCGUCCCUUCUAACAACCGUCUUCGACAUGAGGCCCGGAUCCGGC
# B24: TNF 10C (ssRNA)
# RNA: GGGAGCUCAGAAUAAACGCUCAACGCCGAGACCCACCUCAUAACACCGCUACCUUCGACAUGAGGCCCGGAUCCGGC
# B25: IL-4 2'F/NH2-28 (ssRNA)
# RNA: GGGAGACAAGAAUAAACGCUCAAGAUCCUGCGACGCCAGGGGUGGAUAGGGGGAAGGGAGCGGUUCGACAGGAGGCUCACAACAGGC
# modifications: 2'-F all C, 2'-NH2 all U
# B26: TNF 7C (ssRNA)
# RNA: GGGAGCUCAGAAUAAACGCUCAACAGGUGGCACCGCCCUUCCAACACGGUGCGUUCGACAUGAGGCCCGGAUCCGGC
# B27: TNF 7C 2'F (ssRNA)
# RNA: B26 RNA
# modifications: 2'-F all C and U
# B28: TNF 8A (ssRNA)
# RNA: GGGAGCUCAGAAUAAACGCUCAACAGUGGAGGCUGUCCAAACCCACCCACCCCUUCGACAUGAGGCCCGGAUCCGGC
# B29: IL-10 ligand 56 (ssRNA)
# RNA: GGGAGACAAGAAUAAACGCUCAAUCUCUAAGAGCCUGGAUGUCGAGGGGCCAUUUCGCACGCUUCGACAGGAGGCUCACAACAGGC
# modifications: 2'-F C and U
# B30: TNF 12C (ssRNA)
# RNA: GGGAGCUCAGAAUAAACGCUCAAGUCCGCAUGAUGCUUCGAACAGCAUACAACUUCGACAUGAGGCCCGGAUCCGGC
# B31: TNF 25A 2'F (ssRNA)
# RNA: B30 RNA with U25G, A33C, U34C, G35C, U38C, G40U, A49G
# modifications: 2'-F all C and U
# B32: TNF 4A 2'F (ssRNA)
# RNA: GGGAGCUCAGAAUAAACGCUCAACGCACUCGGACGGAAUCUCCGUAGGACACGUUCGACAUGAGGCCCGGAUCCGGC
# modifications: 2'-F all C and U
# B33: IL-4 2'F/NH2-16 (ssRNA)
# RNA: GGGAGACAAGAAUAAACGCUCAAGGUACGACCAAGGAAUGUGGGUGGAAGAGGGCGCCGUACCUUCGACAGGAGGCUCACAACAGGC
# modifications: 2'-F C, 2'-NH2 U
# B34: IL-4 2'F/NH2-11 (ssRNA)
# RNA: B33 RNA with C55U
# modifications: 2'-F C, 2'-NH2 U
# B35: TNF 9C (ssRNA)
# RNA: GGGAGCUCAGAAUAAACGCUCAAAUGGUGGAGGCCAUCUCAAACCCACGACACUUCGACAUGAGGCCCGGAUCCGGC
# B36: TNF 9C 2'F (ssRNA)
# RNA: B35 RNA
# modifications: 2'-F all C and U
# B37: TNF 3A (ssRNA)
# RNA: GGGAGCUCAGAAUAAACGCUCAAGAUCGACGCAUCGAGUCGCCUCAUCGCUCCUUCGACAUGAGGCCCGGAUCCGGC
# B38: TNF 3A 2'F (ssRNA)
# RNA: B37 RNA
# modifications: 2'-F all C and U
# B39: TNF 22A (ssRNA)
# RNA: GGGAGCUCAGAAUAAACGCUCAAGUCGGAUGGUUUUGCGCGUUUCCCGUUCGACAUGAGGCCCGGAUCCGGC
# B40: IL-10 ligand 59 (ssRNA)
# RNA: GGGAGACAAGAAUAAACGCUCAACGUAAAAGUUAUCGAAUCUCUGUGAGCCUGGAUCGAUUACUUCGACAGGAGGCUCACAACAGGC
# modifications: 2'-F C and U
# Assays:
# TNF-alpha [1] = target: T1, TNF-alpha (Homo sapiens, UniProt P01375 P01375:77-233); assay: filter; class I; details: tags: Genzyme or R&D Systems; chain copies: 3 inferred
# T1 sequence (P01375 77-233, one chain of several): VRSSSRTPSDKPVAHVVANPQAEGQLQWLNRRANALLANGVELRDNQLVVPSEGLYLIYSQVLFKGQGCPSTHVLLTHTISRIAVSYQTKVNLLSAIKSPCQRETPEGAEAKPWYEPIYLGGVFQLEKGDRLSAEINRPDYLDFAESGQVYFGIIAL
# TNF-alpha [2] = target: T1, TNF-alpha; assay: filter; no value shown, Kd above 1 uM per footnote; DPBS; details: tags: Genzyme or R&D Systems; chain copies: 3
# IL-10 = IL-10 (Homo sapiens, UniProt P22301 P22301:19-178); assay: filter; group statement, at 250 nM IL-10; details: tags: Bachem or R&D Systems; chain copies: 2
# IL-10, sequence (P22301 19-178, one chain of several): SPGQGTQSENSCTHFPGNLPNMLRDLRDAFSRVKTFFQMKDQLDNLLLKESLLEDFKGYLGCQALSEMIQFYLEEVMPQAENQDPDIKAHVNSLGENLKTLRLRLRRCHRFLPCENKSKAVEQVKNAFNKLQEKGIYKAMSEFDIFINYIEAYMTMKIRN
# IL-4 [3] = target: T2, IL-4 (Homo sapiens, UniProt P05112 P05112:25-153); assay: filter; full-length; details: tags: R&D Systems
# T2 sequence (P05112 25-153, one chain of several): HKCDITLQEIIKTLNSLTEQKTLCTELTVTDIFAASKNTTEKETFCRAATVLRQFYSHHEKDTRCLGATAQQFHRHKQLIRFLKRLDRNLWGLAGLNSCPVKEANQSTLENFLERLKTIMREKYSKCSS
# IL-4 [4] = target: T2, IL-4; assay: filter; group 2 stated to bind IL-4; details: tags: R&D Systems
# TNF-alpha [5] = target: T1, TNF-alpha; assay: filter; 2'F version; details: tags: Genzyme or R&D Systems; chain copies: 3 inferred
binder,measurement,setting,value
B1,Kd,TNF-alpha [1],140 nM
B2,Kd,TNF-alpha [2],> 1000 nM
B3,Kd,TNF-alpha [2],> 1000 nM
B4,Kd,TNF-alpha [1],83 nM
B5,Kd,TNF-alpha [2],> 1000 nM
B6,binding result,IL-10,binds
B7,Kd,TNF-alpha [2],> 1000 nM
B8,Kd,IL-4 [3],8.3 nM
B9,Kd,TNF-alpha [2],> 1000 nM
B10,Kd,TNF-alpha [2],> 1000 nM
B11,Kd,IL-4 [3],30 nM
B12,Kd,TNF-alpha [2],> 1000 nM
B13,binding result,IL-10,binds
B14,Kd,TNF-alpha [2],> 1000 nM
B15,binding result,IL-4 [4],binds
B16,binding result,IL-10,binds
B17,Kd,IL-4 [3],11 nM
B18,Kd,TNF-alpha [2],> 1000 nM
B19,Kd,IL-4 [3],43 nM
B20,Kd,TNF-alpha [2],> 1000 nM
B21,Kd,TNF-alpha [5],503 nM
B22,Kd,IL-4 [3],30 nM
B23,Kd,TNF-alpha [1],124 nM
B24,Kd,TNF-alpha [1],500 nM
B25,Kd,IL-4 [3],8.7 nM
B26,Kd,TNF-alpha [1],297 nM
B27,Kd,TNF-alpha [5],442 nM
B28,Kd,TNF-alpha [1],785 nM
B29,binding result,IL-10,binds
B30,Kd,TNF-alpha [1],690 nM
B31,Kd,TNF-alpha [5],445 nM
B32,Kd,TNF-alpha [5],178 nM
B33,binding result,IL-4 [4],binds
B34,binding result,IL-4 [4],binds
B35,Kd,TNF-alpha [1],120 nM
B36,Kd,TNF-alpha [5],400 nM
B37,Kd,TNF-alpha [1],135 nM
B38,Kd,TNF-alpha [5],623 nM
B39,Kd,TNF-alpha [2],> 1000 nM
B40,binding result,IL-10,binds
